Data taken from publication doi:10.1101/2022.08.19.504472.

Columns and labels:
[1] = molecular target: FITC-labeled RLAAK peptide; assay: fluorescence polarisation
[2] = molecular target: FITC-labeled RDAAK peptide; assay: fluorescence polarisation

Kd [1] [µM] | Kd [2] [µM] | Substance
709 |  | His-MBP-OsPRT6-UBR 136H+161V double mutant (domain or fragment)
41.4 |  | His-MBP-OsPRT6-UBR 161V mutant (domain or fragment)
58.9 |  | His-MBP-OsPRT6-UBR 136H mutant (domain or fragment)
25.8 | 137 | His-MBP-OsPRT6-UBR wild type (domain or fragment)
